{"source": "patent US20220242943A1", "key": {"[1]": {"biological_target": "Cynomolgus monkey PDGF-BB (cynomolgus monkey (Macaca fascicularis))", "sequence (chain, as listed by the source)": "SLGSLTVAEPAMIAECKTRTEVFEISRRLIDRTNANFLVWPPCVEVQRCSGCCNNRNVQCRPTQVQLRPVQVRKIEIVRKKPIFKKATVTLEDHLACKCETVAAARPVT", "experiment": "SPR 25C, mAb captured on anti-hFc; analyte Monkey PDGF-BB homodimer (Kingfisher)"}, "human PDGF-AB (human) [2]": {"biological_target": "human PDGF-AB (human) (UniProt P04085)", "experiment": "blocking ELISA: 100 pM Biot-PDGF-AB on 1 ug/ml hPDGFRb-mmH; IC50 cell NB (Non-Blocker)"}, "human PDGF-BB (human) [3]": {"biological_target": "human PDGF-BB (human) (UniProt P01127)", "experiment": "SPR 25C, mAb captured on anti-hFc; analyte Human PDGF-BB homodimer (R&D)"}, "human PDGF-AB (human) [4]": {"biological_target": "human PDGF-AB (human) (UniProt P04085)", "experiment": "cell-based or functional assay"}, "human PDGF-BB (human) [5]": {"biological_target": "human PDGF-BB (human) (UniProt P01127)", "experiment": "cell-based or functional assay"}, "human PDGF-BB (human) [6]": {"biological_target": "human PDGF-BB (human) (UniProt P01127)", "experiment": "blocking ELISA: 60 pM Biot-PDGF-BB on 1 ug/ml hPDGFRb-mmH; IC50 cell NB (Non-Blocker)"}, "[7]": {"biological_target": "human PDGFRβ on HEK293/SRE-luc/hPDGFRβ cells (human) (UniProt P09619)", "sequence (P09619 33-1106)": "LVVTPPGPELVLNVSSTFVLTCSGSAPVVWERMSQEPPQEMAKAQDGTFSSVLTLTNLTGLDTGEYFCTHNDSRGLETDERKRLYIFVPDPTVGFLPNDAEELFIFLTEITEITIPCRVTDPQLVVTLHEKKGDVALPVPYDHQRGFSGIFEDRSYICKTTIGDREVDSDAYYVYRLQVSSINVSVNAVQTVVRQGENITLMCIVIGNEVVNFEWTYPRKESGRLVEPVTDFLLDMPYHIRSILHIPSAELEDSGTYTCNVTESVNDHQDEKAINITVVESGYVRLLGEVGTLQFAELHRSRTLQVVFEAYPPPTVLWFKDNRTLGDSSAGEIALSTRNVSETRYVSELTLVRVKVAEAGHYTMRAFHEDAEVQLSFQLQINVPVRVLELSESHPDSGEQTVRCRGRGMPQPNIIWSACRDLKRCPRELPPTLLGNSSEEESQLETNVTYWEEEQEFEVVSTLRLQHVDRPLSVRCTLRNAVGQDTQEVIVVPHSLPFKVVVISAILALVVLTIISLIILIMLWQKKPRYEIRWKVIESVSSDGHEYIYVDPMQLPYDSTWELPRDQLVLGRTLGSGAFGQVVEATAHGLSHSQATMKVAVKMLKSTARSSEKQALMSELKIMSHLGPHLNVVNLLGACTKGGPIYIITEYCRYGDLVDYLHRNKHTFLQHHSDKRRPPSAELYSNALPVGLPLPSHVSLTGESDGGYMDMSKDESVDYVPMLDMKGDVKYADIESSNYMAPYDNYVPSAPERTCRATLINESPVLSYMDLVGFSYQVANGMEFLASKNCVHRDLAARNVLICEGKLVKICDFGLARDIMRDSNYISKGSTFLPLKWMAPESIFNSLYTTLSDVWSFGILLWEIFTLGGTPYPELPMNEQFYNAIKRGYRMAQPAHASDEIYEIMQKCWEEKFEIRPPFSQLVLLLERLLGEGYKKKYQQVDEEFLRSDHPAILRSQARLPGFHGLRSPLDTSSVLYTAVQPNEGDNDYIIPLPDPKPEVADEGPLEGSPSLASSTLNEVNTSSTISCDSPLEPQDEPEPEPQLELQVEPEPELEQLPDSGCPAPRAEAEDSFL", "experiment": "cell-based or functional assay"}}, "data": [{"substance": "REGN1945 (antibody)", "values": [{"measurement": "30nM mfPDGF-BB (KingFisher) Bound (RU)", "setting": "[1]", "result": 6.8, "unit": "RU"}, {"measurement": "% blocking at 100 nM Ab", "setting": "human PDGF-AB (human) [2]", "result": 21, "unit": "%"}, {"measurement": "30nM hPDGF-BB (R&D) Bound (RU)", "setting": "human PDGF-BB (human) [3]", "result": 6.7, "unit": "RU"}, {"measurement": "A647 Intensity, internalization in NHLF, pre-blocking Ab: NA", "setting": "human PDGF-AB (human) [4]", "result": 624000}, {"measurement": "A647 Intensity, internalization in PASMC, pre-blocking Ab: NA", "setting": "human PDGF-AB (human) [4]", "result": 464000}, {"measurement": "Fold Change vs REGN1945, internalization in NHLF, pre-blocking Ab: NA", "setting": "human PDGF-AB (human) [4]", "result": 1, "unit": "fold"}, {"measurement": "Fold Change vs REGN1945, internalization in PASMC, pre-blocking Ab: NA", "setting": "human PDGF-AB (human) [4]", "result": 1, "unit": "fold"}, {"measurement": "A647 Intensity, internalization in NHLF, pre-blocking Ab: NA", "setting": "human PDGF-BB (human) [5]", "result": 573000}, {"measurement": "A647 Intensity, internalization in PASMC, pre-blocking Ab: NA", "setting": "human PDGF-BB (human) [5]", "result": 483000}, {"measurement": "EC50 of subsequent PDGF-BB calcium flux in PASMC after 3 hr pre-treatment with antibody-PDGFBB (10:1 nM)", "setting": "human PDGF-BB (human) [5]", "result": 0.6, "unit": "nM"}, {"measurement": "Fold Change vs REGN1945, internalization in NHLF, pre-blocking Ab: NA", "setting": "human PDGF-BB (human) [5]", "result": 1, "unit": "fold"}, {"measurement": "Fold Change vs REGN1945, internalization in PASMC, pre-blocking Ab: NA", "setting": "human PDGF-BB (human) [5]", "result": 1, "unit": "fold"}, {"measurement": "Max-Min at 5 nM PDGF-BB (RFU), PASMC after 3 hr pre-treatment with antibody-PDGFBB", "setting": "human PDGF-BB (human) [5]", "result": 3950, "unit": "RFU"}, {"measurement": "Max-Min at 5 nM PDGF-BB (RFU), PASMC after 24 hr pre-treatment with antibody-PDGFBB", "setting": "human PDGF-BB (human) [5]", "result": 1460, "unit": "RFU"}, {"measurement": "Max-Min at 5 nM PDGF-BB (RFU), PASMC after 48 h pre-treatment with antibody-PDGFBB", "setting": "human PDGF-BB (human) [5]", "result": 492, "unit": "RFU"}, {"measurement": "% blocking at 100 nM Ab", "setting": "human PDGF-BB (human) [6]", "result": -6, "unit": "%"}]}, {"substance": "human PDGF-AB (from UniProt P04085 87-211) (ligand)", "values": [{"measurement": "EC50 of ligand, SRE-luciferase in HEK293/SRE-luc/hPDGFRβ cells", "setting": "[7]", "result": 8.6, "unit": "nM"}]}, {"substance": "isotype - mIgG (REGN 751) (antibody)", "values": [{"measurement": "% blocking at 100 nM Ab", "setting": "human PDGF-AB (human) [2]", "result": 18, "unit": "%"}, {"measurement": "% blocking at 100 nM Ab", "setting": "human PDGF-BB (human) [6]", "result": -5, "unit": "%"}]}]}
